These results are taken from US20250340631A1 (HARBOUR BIOMED SHANGHAI, published 2025).

One may read the EC50 as the concentration giving half of the maximal effect. Read a high EC50 as lower potency in that assay.

Numbering of substitutions follows the chain as printed.

One experiment deals with T1, human CLDN18.1 (human, UniProt P56856 1-261).
T1 construct: whole, on cells; also called hCLDN18.1
The experiment can be described thus: FACS on HEK293/hCLDN18.1 cells.

Experiment [1] concerns the target T2, human CLDN18.2 (human).
T2 construct: the HEK293 line was made with a GenScript plasmid; also called hCLDN18.2
Briefly: FACS on NUGC4_D8 cells.

Experiment [2] addresses T3, human CD3 on Jurkat cells (human, UniProt P07766 23-207).
T3 construct: whole, on cells; on cells it stands in the whole CD3/TCR complex; also called CD3-expressing cells
The experiment can be described thus: FACS on Jurkat cells.
Method: (§1) Antibodies were assayed for binding affinity by FACS. Test cells include HEK293/hCLDN18.2, HEK293/hCLDN18.1, NUGC4_D8 and Jurkat cells. […] The cell density was adjusted to 10⁶ cells/mL, and 50 μL of the cell suspension was added to each well of a 96-well plate. Antibodies were diluted to different concentrations with FACS buffer, and 50 μL of the antibody dilution was added to each well of the 96-well plate. After 2 h of incubation at 4° C., the plate was washed twice with FACS buffer. […] After 1 h of incubation at 4° C., the plate was washed twice with FACS buffer. The cells were resuspended in fixative solution, and then the fluorescence of the cells was monitored using an FACS instrument (ACEA NovoCyte).

Experiment [3] deals with T2, human CLDN18.2. Briefly: cell-based or functional assay.
Experiment [4] concerns the target T2, human CLDN18.2. The experiment can be described thus: FACS on HEK293/hCLDN18.2 cells.
The target in experiment [5] is T3, human CD3 on Jurkat cells. The experiment can be described thus: FACS on Jurkat cells (CD3).
Method: as §1

T3 sequence (P07766 23-207): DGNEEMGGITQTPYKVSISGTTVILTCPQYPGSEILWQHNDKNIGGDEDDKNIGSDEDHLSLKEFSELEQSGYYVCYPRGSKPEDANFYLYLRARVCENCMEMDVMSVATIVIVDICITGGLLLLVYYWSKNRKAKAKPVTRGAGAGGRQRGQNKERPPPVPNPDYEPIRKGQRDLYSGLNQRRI
T1 sequence (P56856 whole entry): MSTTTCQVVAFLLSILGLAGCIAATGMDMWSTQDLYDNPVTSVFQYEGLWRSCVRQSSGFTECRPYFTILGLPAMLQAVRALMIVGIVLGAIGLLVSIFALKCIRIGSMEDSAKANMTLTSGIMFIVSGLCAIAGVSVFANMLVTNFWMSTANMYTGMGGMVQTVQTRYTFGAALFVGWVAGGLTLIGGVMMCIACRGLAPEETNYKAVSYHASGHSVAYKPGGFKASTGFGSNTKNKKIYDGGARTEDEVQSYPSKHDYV
Method for human CLDN18.1: as §1

B1: PR005520 (bispecific antibody)
chain 1: EVQLVESGGGLVQPGGSLRLSCAASGFTFSSYWMHWVRQVPGKGLVWVSRINSDGSRTIYADSVKGRFTISRDNAKNTLYLQMNSLRAEDTAVYYCARGEDHDILTGYPIRGQGTTVTVSSGGGGSGGGGSGGGGSEVQLVESGGGLVQPGGSLRLSCAASGFTFSSYWMHWVRQVPGKGLVWVSRINSDGSRTIYADSVKGRFTISRDNAKNTLYLQMNSLRAEDTAVYYCARGEDHDILTGYPIRGQGTTVTVSSASEPKSSDKTHTCPPCPAPEAAGGPSVFLFPPKPKDTLMISRTPEVTCVVVDVSHEDPEVKFNWYVDGVEVHNAKTKPREEQYNSTYRVVSVLTVLHQDWLNGKEYKCKVSNKALPAPIEKTISKAKGQPREPQVCTLPPSREEMTKNQVSLSCAVKGFYPSDIAVEWESNGQPENNYKTTPPVLDSDGSFFLVSKLTVDKSRWQQGNVFSCSVMHEALHNHYTQKSLSLSPGK
chain 2: not shown
light: QAVVTQEPSLTVSPGGTVTLTCRSSTGAVTTSNYANWVQQKPGQAPRGLIGGTNKRAPWTPARFSGSLLGDKAALTLLGAQPEDEAEYFCALWYSNLWVFGGGTKLTVLGQPKAAPSVTLFPPSSEELQANKATLVCLISDFYPGAVTVAWKADSSPVKAGVETTTPSKQSNNKYAASSYLSLTPEQWKSHRSYSCQVTHEGSTVEKTVAPTECS
notes: PR001848 / PR004533; LALA
With B1, the binding result with human CLDN18.1 was “no binding”; in experiment [2], “binds”. This molecule gave an EC50 in the experiment with human CLDN18.2 [1] of 13.9 nM. Besides, the “TDCC, Titer EC50 (pM), NUGC4_D8” value with human CLDN18.2 [3] stood at 22.4 pM.

B2: PR007083 (bispecific antibody, human IgG1, lambda)
chain: B1 chain 1 with S49C, N52S, G55A, I70C, S185C, N188S, G191A, I206C, G281A
heavy: EVQLVESGGGLVQPGGSLKLSCAASGFTFSTYAMNWVRQASGKGLEWVGRIRSKYNNYATYYADSVKDRFTISRDDSKNTAYLQMNSLKTEDTAVYYCTRHGNFGNSYVSWFAYWGQGTLVTVSSASTKGPSVFPLAPSSKSTSGGTAALGCLVKDYFPEPVTVSWNSGALTSGVHTFPAVLQSSGLYSLSSVVTVPSSSLGTQTYICNVNHKPSNTKVDKKVEPKSCDKTHTCPPCPAPEAAGAPSVFLFPPKPKDTLMISRTPEVTCVVVDVSHEDPEVKFNWYVDGVEVHNAKTKPREEQYNSTYRVVSVLTVLHQDWLNGKEYKCKVSNKALPAPIEKTISKAKGQPREPQVYTLPPCREEMTKNQVSLWCLVKGFYPSDIAVEWESNGQPENNYKTTPPVLDSDGSFFLYSKLTVDKSRWQQGNVFSCSVMHEALHNHYTQKSLSLSPGK
light: B1 light
notes: structure 1; CD3 Fab from PR003886; AAA
Take B2: in the experiment with human CLDN18.2 [4], a half-maximal effect (EC50) was put at 9.6 nM. Also, the binding result in experiment [5] is reported as “binds”.
